We go through two substances from publication PMC9311320.

“And” between values parts separate entries of the source, which are not always exact repeats. Identical values can stand only once.

Test [1] has as its target recombinant human CD38 extracellular domain (ECD) fused to a his-tag (human) (UniProt P28907). The experiment in a line: SPR.
Test [2] addresses CD38 on CD38+ human cells (Daudi, Ramos, PBMCs) (human (endogenous in Daudi, Ramos and PBMCs)) (UniProt P28907). Nature of the test: flow cytometry on cells.
Test [3] addresses human CD38 on Chinese hamster ovary (CHO) cells stably transfected to express CD38 (human) (UniProt P28907). The experiment in a line: flow cytometry on cells.
The target in test [4] is TNB-738, anti-CD38 biparatopic antibody (human (from transgenic UniRat) | human). Nature of the test: BLI.

On to “TNB-738, anti-CD38 biparatopic antibody (bispecific antibody)”, for which, in test [1], the Kd fell in the range of 0.1 to 3.8 nM. Besides, the concentration for a half-maximal effect (EC50) was 39.7 nM and 50.3 nM in test [2]; 70.2 nM in test [3].
For the substance “recombinant human CD38 extracellular domain (ECD) fused to a his-tag (from UniProt P28907 43-300) (domain or fragment)”, the dissociation constant (Kd) in test [4] stood at 2.48 nM.
